Holding throughout (test): cell-based or functional assay
The target of assay [1] is T1, human GIP receptor (human) (UniProt P48546).
T1 sequence (looked up): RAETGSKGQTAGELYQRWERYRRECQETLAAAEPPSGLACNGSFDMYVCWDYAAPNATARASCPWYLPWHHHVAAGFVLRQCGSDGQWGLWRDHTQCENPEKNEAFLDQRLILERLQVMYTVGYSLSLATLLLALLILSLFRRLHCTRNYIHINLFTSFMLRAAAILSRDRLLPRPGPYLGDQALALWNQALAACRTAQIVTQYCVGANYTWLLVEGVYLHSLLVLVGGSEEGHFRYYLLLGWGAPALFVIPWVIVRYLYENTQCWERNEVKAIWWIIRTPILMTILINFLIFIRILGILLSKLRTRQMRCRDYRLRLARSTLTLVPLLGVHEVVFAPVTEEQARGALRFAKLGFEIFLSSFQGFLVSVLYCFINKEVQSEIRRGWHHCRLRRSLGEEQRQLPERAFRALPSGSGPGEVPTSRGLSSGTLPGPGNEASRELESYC

The next assay addresses hGLP-1R (Homo sapiens, UniProt P43220).
Assay [2] concerns the target human glucagon receptor (human) (UniProt P47871).

human glucagon receptor (human), sequence (P47871 26-477): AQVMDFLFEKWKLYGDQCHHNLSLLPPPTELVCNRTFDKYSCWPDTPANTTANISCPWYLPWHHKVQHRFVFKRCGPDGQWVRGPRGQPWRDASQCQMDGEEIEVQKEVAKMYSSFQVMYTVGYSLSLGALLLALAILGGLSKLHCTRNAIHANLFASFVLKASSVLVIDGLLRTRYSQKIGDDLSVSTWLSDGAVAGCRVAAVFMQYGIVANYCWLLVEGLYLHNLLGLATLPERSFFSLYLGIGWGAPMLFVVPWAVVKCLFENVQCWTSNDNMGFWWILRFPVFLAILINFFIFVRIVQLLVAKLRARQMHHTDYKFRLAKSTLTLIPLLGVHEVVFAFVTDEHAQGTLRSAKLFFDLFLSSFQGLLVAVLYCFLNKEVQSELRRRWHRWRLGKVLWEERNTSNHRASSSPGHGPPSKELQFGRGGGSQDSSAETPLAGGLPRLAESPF
hGLP-1R, sequence (P43220 24-463): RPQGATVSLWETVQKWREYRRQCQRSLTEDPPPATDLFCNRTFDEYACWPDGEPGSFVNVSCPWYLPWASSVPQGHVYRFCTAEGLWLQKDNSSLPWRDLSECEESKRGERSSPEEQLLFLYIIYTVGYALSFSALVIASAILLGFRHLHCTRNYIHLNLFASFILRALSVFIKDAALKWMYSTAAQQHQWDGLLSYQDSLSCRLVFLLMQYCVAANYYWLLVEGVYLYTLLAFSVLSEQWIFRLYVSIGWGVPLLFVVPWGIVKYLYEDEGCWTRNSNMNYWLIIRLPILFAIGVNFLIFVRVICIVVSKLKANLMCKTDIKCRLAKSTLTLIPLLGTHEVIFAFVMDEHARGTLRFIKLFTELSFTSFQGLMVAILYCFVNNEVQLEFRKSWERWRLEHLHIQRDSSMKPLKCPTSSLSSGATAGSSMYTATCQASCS

B1: Example 1071 (peptide)
chain: YXQGTFTSDXSQXLDXKAQXAFIEXLIEGGPSSGAPPPSGSEEE
modifications: acylated Lys e-γGlu-C18 diacid; non-natural residues; C-terminal amide; synthetic construct; SITE 2: note = 2-Aminoisobutyric Acid; SITE 10: note = 3-(4-Pyridyl)-L-alanine; SITE 13: note = alpha-methyl-leucine; SITE 16: note = L-ornithine; SITE 17: note = Lysine is chemically modified through conjugation of the epsilon-amino group of the Lysine side chain with D-Glutami
Regarding B1, the Relative cAMP EC50 in assay [1] turned out to be 0.261 nM; with hGLP-1R, 2.06 nM; in assay [2], 23.5 nM. For the same molecule, the cAMP Rel EC50 (1% HSA) came out at 40.2 nM in assay [1], 425 nM with hGLP-1R and 2990 nM in assay [2].

B2: Example 1077 (peptide)
chain: YXQGTFTSDXSQXLDXKAQXAFIQXLIEGGPSSGAPPPSGSEEE
modifications: Glu-γGlu-C18 diacid on Lys; non-natural residues; amide; synthetic construct; SITE 2: note = 2-Aminoisobutyric Acid; SITE 10: note = 3-(4-Pyridyl)-L-alanine; SITE 13: note = alpha-methyl-leucine; SITE 16: note = L-ornithine; SITE 17: note = Lysine is chemically modified through conjugation of the epsilon-amino group of the Lysine side chain with (Glu)-(ga)
Turning to B2, the Relative cAMP EC50 was 0.23 nM in assay [1], 1.48 nM in the assay with hGLP-1R and 18.8 nM in assay [2]. Besides, the results for the cAMP Rel EC50 (1% HSA) (in assay [1]; in the assay with hGLP-1R; in assay [2]) were 27.8 nM, 408 nM and 3160 nM, respectively.

B3: Example 1081 (peptide)
chain: YXQGTFTSDXSQXLDXKAQXQFIEXLIAGGPSSGAPPPSGSEEE
modifications: Aib, 4Pal, Orn, Me4Pal, alpha-methyl-Tyr, lipidated Lys, amide; synthetic construct; SITE 2: note = 2-Aminoisobutyric Acid; SITE 10: note = 3-(4-Pyridyl)-L-alanine; SITE 13: note = alpha-methyl-leucine; SITE 16: note = L-ornithine; SITE 17: note = Lysine is chemically modified through conjugation of the epsilon-amino group of the Lysine side chain with D-Glutami
In the case of B3, the Relative cAMP EC50 in assay [1] was 0.105 nM; with hGLP-1R, 1.29 nM; in assay [2], 19.7 nM. Also, the results for the cAMP Rel EC50 (1% HSA) (in assay [1]; with hGLP-1R; in assay [2]) were 8.44 nM, 151 nM and 2130 nM, respectively.

B4: Example 1082 (peptide)
chain: YXQGTFTSDXSQXLDXKAQXAFIEXLLAGGPSSGAPPPSGSEEE
modifications: Lys acylated γGlu-C18 diacid; non-natural residues; C-amide; synthetic construct; SITE 2: note = 2-Aminoisobutyric Acid; SITE 10: note = 3-(4-Pyridyl)-L-alanine; SITE 13: note = alpha-methyl-leucine; SITE 16: note = L-ornithine; SITE 17: note = Lysine is chemically modified through conjugation of the epsilon-amino group of the Lysine side chain with D-Glutami
As for B4, the values for the Relative cAMP EC50 (in assay [1]; in the assay with hGLP-1R; in assay [2]) were 0.099 nM, 4.13 nM and 12.3 nM, respectively. In addition, the cAMP Rel EC50 (1% HSA) in assay [1] stood at 12.3 nM; in the assay with hGLP-1R it was 677 nM; in assay [2] it was 1530 nM.

B5: Example 1083 (peptide)
chain: YXQGTFTSDXSQXLDXKAQXAFIQXLLEGGPSSGAPPPSGSEEE
modifications: Aib, 4Pal, Orn, Me4Pal, αMeY; acylated lysine; amide; synthetic construct; SITE 2: note = 2-Aminoisobutyric Acid; SITE 10: note = 3-(4-Pyridyl)-L-alanine; SITE 13: note = alpha-methyl-leucine; SITE 16: note = L-ornithine; SITE 17: note = Lysine is chemically modified through conjugation of the epsilon-amino group of the Lysine side chain with D-Glutami
As for B5, the figures for the Relative cAMP EC50 (in assay [1]; with hGLP-1R; in assay [2]) were 0.328 nM, 7.76 nM and 15 nM, respectively. Moreover, the cAMP Rel EC50 (1% HSA) in assay [1] stood at 20.5 nM; with hGLP-1R it was 547 nM; in assay [2] it was 1030 nM.

B6: Example 1073 (peptide)
chain: YXQGTFTSDXSQXLDXKAQXAFIQXLIEGGPSSGAPPPSGSEEE
modifications: non-natural residues, acylated Lys (γGlu-C18 diacid), C-terminal amide; synthetic construct; SITE 2: note = 2-Aminoisobutyric Acid; SITE 10: note = 3-(4-Pyridyl)-L-alanine; SITE 13: note = alpha-methyl-leucine; SITE 16: note = L-ornithine; SITE 17: note = Lysine is chemically modified through conjugation of the epsilon-amino group of the Lysine side chain with D-Glutami
With B6, the Relative cAMP EC50 in assay [1] worked out at 0.201 nM; with hGLP-1R it was 1.09 nM; in assay [2], 12.3 nM. The results for the cAMP Rel EC50 (1% HSA) (in assay [1]; with hGLP-1R; in assay [2]) were 15.7 nM, 114 nM and 1490 nM, respectively.

B7: Example 1084 (peptide)
chain: YXQGTFTSDXSQXLDXKAQXQFIEXLLAGGPSSGAPPPSGSEEE
modifications: not fully specified; Lys acylated γGlu-C18 diacid; non-natural residues; C-terminal amide; synthetic construct; SITE 2: note = 2-Aminoisobutyric Acid; SITE 10: note = 3-(4-Pyridyl)-L-alanine; SITE 13: note = alpha-methyl-leucine; SITE 16: note = L-ornithine; SITE 17: note = Lysine is chemically modified through conjugation of the epsilon-amino group of the Lysine side chain with D-Glutami
In the case of B7, the Relative cAMP EC50 in assay [1] came to 0.0975 nM; with hGLP-1R, 10.3 nM; in assay [2], 11.5 nM. For the same molecule, the cAMP Rel EC50 (1% HSA) in assay [1] stood at 17.2 nM; with hGLP-1R, 761 nM; in assay [2], 1390 nM.

B8: Example 1076 (peptide)
chain: YXQGTFTSDXSQXLDXKAQXAFIQXLIEGGPSSGAPPPSGSEEE
modifications: non-natural residues (Aib, 4Pal, Orn, Me4Pal, αMeY); lipidated K; amide; synthetic construct; SITE 2: note = 2-Aminoisobutyric Acid; SITE 10: note = 3-(4-Pyridyl)-L-alanine; SITE 13: note = alpha-methyl-leucine; SITE 16: note = L-ornithine; SITE 17: note = Lysine is chemically modified through conjugation of the epsilon-amino group of the Lysine side chain with D-Glutami
As to B8, the Relative cAMP EC50 in assay [1] is 0.174 nM; with hGLP-1R it was 1.47 nM; in assay [2], 59 nM. For the same molecule, the cAMP Rel EC50 (1% HSA) in assay [1] came out at 20.2 nM; with hGLP-1R, 187 nM; in assay [2], 1650 nM.

B9: Example 103 (peptide)
chain: YXQGTFTSDFSXXLDKKAQXAFIEWLLAGGPSSGEPPPSGE
modifications: synthetic construct; SITE 2: note = 2-Aminoisobutyric Acid; SITE 12: note = L-ornithine; SITE 13: note = alpha-methyl-leucine; SITE 17: note = Lysine is chemically modified through conjugation of the epsilon-amino group of the Lysine side chain with (2-[2-(2-Amino-ethoxy)-ethoxy]-acetyl)-(gamma-Glu)
Take B9: the results for the Relative cAMP EC50 (in assay [1]; with hGLP-1R; in assay [2]) were 0.2 nM, 3.27 nM and 10.5 nM, respectively. The cAMP Rel EC50, nM (in the presence of 1% HSA) turned out to be 35.1 nM in assay [1], 482 nM in the assay with hGLP-1R and 2590 nM in assay [2].

B10: Example 1085 (peptide)
chain: YXQGTFTSDXSQXLDKKAQXAFIEYLIAGGPSSGAPPPSGE
modifications: non-natural residues; lipidated Lys; C-terminal amide; synthetic construct; SITE 2: note = 2-Aminoisobutyric Acid; SITE 10: note = 3-(4-Pyridyl)-L-alanine; SITE 13: note = alpha-methyl-leucine; SITE 17: note = Lysine is chemically modified through conjugation of the epsilon-amino group of the Lysine side chain with D-Glutamic acid-(gamma-Glu)-CO-(CH2)16
B10: the Relative cAMP EC50 in assay [1] was 0.0827 nM; in the assay with hGLP-1R, 1.28 nM; in assay [2], 11.6 nM. Besides, the cAMP Rel EC50 (1% HSA) in assay [1] amounted to 9.84 nM; with hGLP-1R, 188 nM; in assay [2] it was 1370 nM.

B11: Example 1086 (peptide)
chain: YXQGTFTSDXSQXLDKKAQXAFIEYLIAGGPSSGAPPPSGE
modifications: Aib, 4Pal, αMeL, Me4Pal; acylated K; C-terminal amide; synthetic construct; SITE 2: note = 2-Aminoisobutyric Acid; SITE 10: note = 3-(4-Pyridyl)-L-alanine; SITE 13: note = alpha-methyl-leucine; SITE 17: note = Lysine is chemically modified through conjugation of the epsilon-amino group of the Lysine side chain with (Glu)-(gamma-Glu)-CO-(CH2)16-CO2H; SIT
As to B11, the Relative cAMP EC50 in assay [1] was 0.117 nM; with hGLP-1R, 1.23 nM; in assay [2], 12 nM. The cAMP Rel EC50 (1% HSA) was 21.2 nM in assay [1], 496 nM in the assay with hGLP-1R and 3140 nM in assay [2].

Source of the values: patent US20240270821A1, “GIP/GLP1/GCG TRI-RECEPTOR AGONISTS AND USES THEREOF” (priority 2023, published 2024).
